Test [1] has as its target T1, FLAG-XPC/RAD23B-His complex (human, UniProt Q01831 1-940; P54727 1-409).
T1 construct: XPC protein, human; called full-length / intact XPC; RAD23B, one of the two mammalian homologs of S. cerevisiae RAD23; also called XPC/RAD23B complex; control heterodimer
T1 sequence (looked up) 1: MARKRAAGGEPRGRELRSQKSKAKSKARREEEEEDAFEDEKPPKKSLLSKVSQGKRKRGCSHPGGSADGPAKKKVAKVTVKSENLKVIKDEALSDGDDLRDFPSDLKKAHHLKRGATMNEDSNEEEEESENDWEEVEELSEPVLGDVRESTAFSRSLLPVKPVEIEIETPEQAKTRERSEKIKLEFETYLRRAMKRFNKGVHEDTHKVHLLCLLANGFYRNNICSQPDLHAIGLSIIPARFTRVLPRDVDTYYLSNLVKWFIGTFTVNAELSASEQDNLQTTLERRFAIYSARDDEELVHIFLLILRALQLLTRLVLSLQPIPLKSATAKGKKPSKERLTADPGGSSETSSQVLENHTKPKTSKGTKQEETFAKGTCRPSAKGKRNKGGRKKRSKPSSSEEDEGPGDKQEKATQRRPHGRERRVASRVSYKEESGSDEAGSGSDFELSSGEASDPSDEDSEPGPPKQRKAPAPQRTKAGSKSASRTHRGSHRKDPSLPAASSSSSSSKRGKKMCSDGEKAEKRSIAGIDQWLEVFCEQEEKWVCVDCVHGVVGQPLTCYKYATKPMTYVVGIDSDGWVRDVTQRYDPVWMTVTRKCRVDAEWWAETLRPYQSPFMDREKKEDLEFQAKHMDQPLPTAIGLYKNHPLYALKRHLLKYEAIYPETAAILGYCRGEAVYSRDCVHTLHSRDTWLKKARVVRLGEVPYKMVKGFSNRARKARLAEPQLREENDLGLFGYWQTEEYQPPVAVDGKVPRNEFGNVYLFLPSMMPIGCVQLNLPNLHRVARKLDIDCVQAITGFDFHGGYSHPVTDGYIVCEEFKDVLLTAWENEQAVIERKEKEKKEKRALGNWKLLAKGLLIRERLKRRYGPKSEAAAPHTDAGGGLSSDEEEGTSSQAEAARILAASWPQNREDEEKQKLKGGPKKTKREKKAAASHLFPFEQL
T1 sequence (looked up) 2: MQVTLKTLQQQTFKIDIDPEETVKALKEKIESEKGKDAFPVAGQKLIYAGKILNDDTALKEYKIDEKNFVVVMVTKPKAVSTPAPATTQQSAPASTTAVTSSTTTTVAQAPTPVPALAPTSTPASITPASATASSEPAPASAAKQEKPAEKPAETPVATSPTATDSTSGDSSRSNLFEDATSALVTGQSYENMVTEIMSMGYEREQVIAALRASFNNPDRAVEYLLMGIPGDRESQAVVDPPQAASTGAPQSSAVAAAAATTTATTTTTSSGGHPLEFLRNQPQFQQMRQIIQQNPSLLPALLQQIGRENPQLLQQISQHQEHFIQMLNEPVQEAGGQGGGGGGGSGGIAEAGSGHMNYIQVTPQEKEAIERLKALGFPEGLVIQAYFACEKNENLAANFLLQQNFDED
Nature of the test: pull-down; purified GST-centrin-2 (WT, N or C) incubated with FLAG-XPC/RAD23B-His, pulled down with anti-FLAG antibody beads; immunoblot. The settings on record: both partners purified. On the technique in general: A western blot detects proteins with antibodies after separation by electrophoresis.

The target in test [2] is T1, FLAG-XPC/RAD23B-His complex. Nature of the test: pull-down; FLAG-XPC/RAD23B-His immobilised on anti-FLAG magnetic beads, incubated with centrin-2 (WT or C domain, GST removed), extensive washing, elution with FLAG peptide; reconstituted heterotrimers. Conditions: both partners purified.
For test [3] the target is unchanged. Nature of the test: cell-based or functional assay.
Test [4] deals with T2, FLAG-XPA (human, UniProt P23025 1-273).
T2 construct: XPA protein, human; also called purified recombinant XPA
T2 sequence (P23025 whole entry): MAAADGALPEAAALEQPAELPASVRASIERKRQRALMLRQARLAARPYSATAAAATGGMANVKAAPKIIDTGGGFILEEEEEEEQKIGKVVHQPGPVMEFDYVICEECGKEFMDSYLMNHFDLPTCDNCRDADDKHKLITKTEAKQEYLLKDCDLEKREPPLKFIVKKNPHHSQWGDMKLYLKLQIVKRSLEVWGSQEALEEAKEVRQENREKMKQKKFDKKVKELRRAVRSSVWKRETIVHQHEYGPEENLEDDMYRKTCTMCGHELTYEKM
Nature of the test: pull-down; FLAG-XPA (0.5 µg) immobilised on anti-DDDDK-tag magnetic beads; centrin-2 in buffer B, on ice 1 h; elution with FLAG peptide; immunoblot; no XPC/RAD23B. The settings on record: both partners purified.

B1: GST-centrin-2 C domain (domain or fragment, human, UniProt P41208 94-172, looked up)
chain: TQKMSEKDTKEEILKAFKLFDDDETGKISFKNLKRVAKELGENLTDEELQEMIDEADRDGDGEVSEQEFLRIMKKTSLY
notes: centrin-2, human, carboxyl-terminal (C) domain, residues 94-172; source: E. coli BL21 (DE3), purified (GSTrap FF, HiTrap Phenyl FF); not shown: GST, N-terminal, kept
Consider B1, for which the binding result in test [1] was “binds”.

B2: centrin-2 C domain, detached from the GST tag (domain or fragment, human, UniProt P41208 94-172, looked up)
chain: TQKMSEKDTKEEILKAFKLFDDDETGKISFKNLKRVAKELGENLTDEELQEMIDEADRDGDGEVSEQEFLRIMKKTSLY
notes: centrin-2, human, carboxyl-terminal (C) domain, residues 94-172; also called the C domain alone; source: E. coli BL21 (DE3), purified (GSTrap FF, HiTrap Phenyl FF), GST removed with PreScission protease; not shown: GST, N-terminal, cleaved
On to B2, for which the binding result in test [2] is given as “binds”.

B3: centrin-2 (WT), detached from the GST tag (natural protein, human, UniProt P41208 1-172, looked up)
chain: MASNFKKANMASSSQRKRMSPKPELTEEQKQEIREAFDLFDADGTGTIDVKELKVAMRALGFEPKKEEIKKMISEIDKEGTGKMNFGDFLTVMTQKMSEKDTKEEILKAFKLFDDDETGKISFKNLKRVAKELGENLTDEELQEMIDEADRDGDGEVSEQEFLRIMKKTSLY
notes: centrin-2, human, wild type; also called WT centrin-2; full-length protein; source: E. coli BL21 (DE3), purified (GSTrap FF, HiTrap Phenyl FF), GST removed with PreScission protease; not shown: GST, N-terminal, cleaved
B3: the “EMSA: enhancement of the binding of XPC/RAD23B to a 180 bp DNA with a 6-4PP by centrin-2 (WT)” value in test [3] is about 2 fold. The binding result in test [4] is “binds”.

B4: centrin-2 M4 mutant, recombinant (natural protein, human, UniProt P41208 1-172, looked up)
chain: MASNFKKANMASSSQRKRMSPKPELTEEQKQEIREAFDLFDADGTGTIDVKELKVAMRALGFEPKKEEIKKMISEIDKEGTGKMNFGDFLTVMTQKMSEKDTKEEILKAFKAADDDETGKISFKNLKRVAKEAGENLTDEELQEAIDEADRDGDGEVSEQEFLRIMKKTSLY
notes: centrin-2, human, point mutant M4 of the WT protein (intact N domain); also called M4 mutant of centrin-2; source: E. coli BL21 (DE3), purified (GSTrap FF, HiTrap Phenyl FF)
Take B4: in test [4], the binding result was “binds”.

Source of the values: paper PMC3737541, “Structure-function analysis of the EF-hand protein centrin-2 for its intracellular localization and nucleotide excision repair” (Nucleic Acids Research, 2013).
